From PMC5723419

Target: Aminopeptidase P from Pseudomonas aeruginosa (Pa-PepP) (Pseudomonas aeruginosa PA14)
Assay: crystal structure

## Aminopeptidase P from Pseudomonas aeruginosa (Pa-PepP) (enzyme)
  stoichiometry N: 4
